According to PMC3629177 (PLoS ONE, 2013):
Where a chain is given by its changes, count along the chain named.

B1: HuMab 37_(L-63) (cloned, IgG1) (antibody, V domains shown)
VH: EVQLVQSGGGLVHPGGSLRLSCAGSGFTFSRYALHWVRQAPGKGLEWVSAIGIGGGTFYADSVKGRFTISRDNAKNSLYLQMNSLRAEDMAVYYCARDTYYDFFDAFDIWGQGTMVTVSS
VL: DIQMTQSPSSLSASVGDRVTITCRASQGISSWLAWYQQKPEKAPKSLIYAASSLQSGVPSRFSGSGSGTDFTLTISSLQPEDFATYYCQQYDSYPLTFGGGTKVEIK
B2: HuMab 33_(L-112) (antibody, V domains shown)
VH: EVQLVESGGGLVQPGGSLRLSCAASGFTFSRYWMSWVRQAPGKGLEWMANIKQDGSETHYVDSVKGRFTISRDNAKNSLYLQMNSLRAEDTAVYYCAIGDYWGQGTLVTVSS
VL: B1 VL with G28D, D92K
B3: HuMab 11_(L-80) (antibody, V domains shown)
VH: QVQLVESGGGVVQPGRSLRLSCAASGFTFSNYGIHWVRQAPGKGLEWVAIIWHDGSNSYYVDSVKGRFTMSRDNSKNTVYLQMNSLRAEDTAVYFCARIIGGAFDIWGQGTMVTVSS
VL: B1 VL with D92N, L96I, G100Q, K103R, V104L
B4: HuMab 56c (antibody, V domains shown)
VH: QVQVVQSGAEVKKPGSSVKVSCKASGGTFSSYAISWVRQAPGQGLEWMGRIIPILGTAKYAQKFQGRVTIIADKSTSTAYMELSSLRSEDTAVYYCARDQDYYGMDVWGQGTTVTVSS
VL: B1 VL with L11V, Q38H, E41G, S46L, Y91T, D92N, S93N, Y94F, L96W, G100Q
B5: HuMab 16_(L-40) (antibody, V domains shown)
VH: EVQLVQSGGGLGHPGGSLRLSCAGSGFTFSSYSMHWLRQAPGKGLKWVSAIGTAGGTYYADSVKGRFTISRDNAKNSFYLQMNSLRAEDMAVYYCAREYFFGSGNYGYWGQGTLVTASS
VL: not shown
B6: HuMab 22c (antibody, V domains shown)
VH: QVQLVESGGGVVQPGRSLRLSCAASGFTFRSYGMHWVRQAPGKGLEWVTLIWYDGSNKYYADSVKGRFTISRDNSKNTLYLQMNSLRVEDTAVYYCAREGFNWDAFDIWGQGTMVTVSS
VL: EIVLTQSPGTLSLSPGERATLSCRASQSVRISYLAWYQQKPGQAPRLLIYGTFSRATGIPDRFSGSGSGTDFTLTISRLEPEDFAVYYCQQYGSSMYTFGQGTKLEIK
B7: HuMab 155c (antibody, V domains shown)
VH: EVQLVQSGAEVKKPGESLKISCKGSGYSFTSYWIGWVRQMPGKGLEWMGIIYPGDSDTRYSPSFQGQVTISADKSISTAYLQWSSLKASDTAMYYCARQGSGWYGNYFDYWGQGTLVTVSS
VL: B6 VL with V29F, R30S, I31R, S32G, T52A, F53S, A56V, G93D, M96P

target: T1, hSOD1-A4V-myc (Homo sapiens, UniProt P00441, point mutant); test: co-IP; soluble lysate of transfected HEK-293T/17 cells (PBS + 0.1% Triton X-100) immunoprecipitated with 2 µg HuMab and protein A sepharose; immunoblot with anti-myc 9E10; details: one partner purified
T1 construct: human SOD1 with the ALS mutation A4V; source: HEK-293T/17, transiently transfected (pcDNA), in lysate; not shown: myc, C-terminal, kept

Binding result, binds:
B1
B2
B3
B4
B5
B6
B7
